Biological target: T1, 5T4 on NCI-H226 cells, NCI-H2030 cells and HCC827 cells (UniProt Q13641 32-420, limits assumed)
T1 construct: whole, on cells
T1 sequence (looked up): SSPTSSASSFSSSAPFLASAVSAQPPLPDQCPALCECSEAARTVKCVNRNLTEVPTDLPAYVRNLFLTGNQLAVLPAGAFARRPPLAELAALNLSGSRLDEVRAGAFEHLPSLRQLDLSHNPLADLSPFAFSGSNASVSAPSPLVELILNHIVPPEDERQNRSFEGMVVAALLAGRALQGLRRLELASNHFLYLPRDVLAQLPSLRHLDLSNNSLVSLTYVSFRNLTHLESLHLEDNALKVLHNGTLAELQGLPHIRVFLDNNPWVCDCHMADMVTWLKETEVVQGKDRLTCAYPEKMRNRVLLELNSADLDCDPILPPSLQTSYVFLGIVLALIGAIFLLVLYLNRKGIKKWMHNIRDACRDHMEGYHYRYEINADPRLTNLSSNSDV
Experiment: flow cytometry on NCI-H226 cells, Alexa Fluor 647 anti-human IgG Fc secondary antibody, MFI
Experimental: NCI-H226 cells, NCI-H2030 cells or HCC827 cells were plated in a 96-well plate at a density of 2×10⁵ cells/well. Serially diluted purified anti-5T4 antibody 32G1 or the positive control PF06263507 analog-SI (maximum concentration: 20 μg/mL, 2-fold dilutions, 12 gradients) were added to each well and were incubated at 4° C. for 30 minutes. Then, after one wash with PBS, the cells were incubated with the secondary antibody Alexa Fluor® 647 anti human IgG Fcγ (Jackson ImmunoResearch Laboratories, Inc., Cat #: 109-606-170) at 4° C. for 15 minutes before flow cytometry analysis.
The cells were collected, and the mean fluorescence intensity (MFI) was determined.

- binding result: binds
B1: PF06263507 analog-SI (antibody, V domains shown)
VH: EVQLVESGGGLVQPGGSLRLSCAASGYTFTNFGMNWVRQAPGKGLEWVAWINTNTGEPRYAEEFKGRFTISRDNAKNSLYLQMNSLRAEDTAVYYCARDWDGAYFFDYWGQGTLVTVSS
VL: DIQMTQSPSSLSASVGDRVTITCKASQSVSNDVAWYQQKPGKAPKLLIYFATNRYTGVPSRFSGSGYGTDFTLTISSLQPEDFATYYCQQDYSSPWTFGQGTKVEIK
notes: PF06263507 is a humanized IgG1 monoclonal antibody targeting 5T4; also called positive control PF06263507 analog-SI
